Our source for the stoichiometry N values is paper PMC7935881.

In assay [1] the target is no-cys-DgkA (cysteine-free Escherichia coli diacylglycerol kinase) (Escherichia coli). Briefly: solid-state NMR structure; MAS ssNMR, intra- and inter-monomer PRE distance restraints with CS-Rosetta; DgkA reconstituted in bilayers of E. coli membrane total extracts; 272 K.
Assay [2] has the same target. Briefly: SDS-PAGE; DgkA refolded/reassembled in buffer (8 M urea, 0.2% SDS, 0.08% E. coli membrane total extracts, 0.96% OG, pH 7.8).

One may read the stoichiometry N as the number of molecules, sites or subunits per partner or assembly. “no-cys-DgkA (cysteine-free Escherichia coli diacylglycerol kinase) (enzyme)”: the stoichiometry N in assay [1] and in assay [2] was 3 each time.
